In data set [1] the test system is HeLa Kyoto. Nature of the data set: melting temperature (median over replicates), in situ; higher = more thermally stable.
For data set [2], the system named is HeLa Kyoto. The data set is described as follows: thermal stability score vs G1/S (z-score of summed log2 fold changes over temperatures); higher = more thermally stable than in G1/S.
The subject of data set [3] is HeLa Kyoto. Nature of the data set: solubility in G1/S (NP-40 vs SDS abundance) (log2 ratio); higher = more soluble. To be noted: cell cycle stage: G1/S.
For data set [4], the system named is HeLa Kyoto. The data set is described as follows: solubility change mitosis vs G1/S (difference of NP-40 vs SDS log2 ratios) (log2 ratio difference); higher = more soluble in mitosis.
Where [5] appears, read: cell cycle stage: early G1 (4.5 h after nocodazole release).
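Throughout, for melting temperature (median over replicates), in situ: HeLa Kyoto cells synchronized by double thymidine or nocodazole block, proteins quantified by TMT10plex mass spectrometry, three independent biological replicates.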
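Throughout, for solubility change mitosis vs G1/S (difference of NP-40 vs SDS log2 ratios): synchronized HeLa Kyoto cells (double thymidine block for G1/S, nocodazole release for mitosis), protein amounts in NP-40 versus SDS lysates quantified by mass spectrometry, three biological replicates.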
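Throughout, for solubility in G1/S (NP-40 vs SDS abundance): HeLa Kyoto cells arrested at G1/S by double thymidine block, proteins quantified by TMT10plex mass spectrometry in mild NP-40 versus SDS extracts, three biological replicates.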
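Throughout, for thermal stability score vs G1/S (z-score of summed log2 fold changes over temperatures): synchronized HeLa Kyoto cells, proteins quantified by TMT10plex mass spectrometry, three biological replicates, mitosis taken 0.5 h after nocodazole release, G1/S directly after double thymidine block.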

For the sequence “MAPVLSKDSADIESILALNPRTQTHATLCSTSAKKLDKKHWKRNPDKNCFNCEKLENNFDDIKHTTLGERGALREAMRCLKCADAPCQKSCPTNLDIKSFITSIANKNYYGAAKMIFSDNPLGLTCGMVCPTSDLCVGGCNLYATEEGPINIGGLQQFATEVFKAMSIPQIRNPSLPPPEKMSEAYSAKIALFGAGPASISCASFLARLGYSDITIFEKQEYVGGLSTSEIPQFRLPYDVVNFEIELMKDLGVKIICGKSLSVNEMTLSTLKEKGYKAAFIGIGLPEPNKDAIFQGLTQDQGFYTSKDFLPLVAKGSKAGMCACHSPLPSIRGVVIVLGAGDTAFDCATSALRCGARRVFIVFRKGFVNIRAVPEEMELAKEEKCEFLPFLSPRKVIVKGGRIVAMQFVRTEQDETGKWNEDEDQMVHLKADVVISAFGSVLSDPKVKEALSPIKFNRWGLPEVDPETMQTSEAWVFAGGDVVGLANTTVESVNDGKQASWYIHKYVQSQYGASVSAKPELPLFYTPIDLVDISVEMAGLKFINPFGLASATPATSTSMIRRAFEAGWGFALTKTFSLDKDIVTNVSPRIIRGTTSGPMYGPGQSSFLNIELISEKTAAYWCQSVTELKADFPDNIVIASIMCSYNKNDWTELAKKSEDSGADALELNLSCPHGMGERGMGLACGQDPELVRNICRWVRQAVQIPFFAKLTPNVTDIVSIARAAKEGGANGVTATNTVSGLMGLKSDGTPWPAVGIAKRTTYGGVSGTAIRPIALRAVTSIARALPGFPILATGGIDSAESGLQFLHSGASVLQVCSAIQNQDFTVIEDYCTGLKALLYLKSIEELQDWDGQSPATVSHQKGKPVPRIAELMDKKLPSFGPYLEQRKKIIAENKIRLKEQNVAFSPLKRNCFIPKRPIPTIKDVIGKALQYLGTFGELSNVEQVVAMIDEEMCINCGKCYMTCNDSGYQAIQFDPETHLPTITDTCTGCTLCLSVCPIVDCIKMVSRTTPYEPKRGVPLSVNPVC [DPYD]”, the melting temperature in the data set with HeLa Kyoto [1] (cell cycle stage: G1/S) amounted to 54 °C; with HeLa Kyoto [1] (cell cycle stage: mitosis) it was 53.5 °C. For the same sequence, the thermal stability score is -1.59 with HeLa Kyoto [2] (setting [5]) and -1.63 in the data set on HeLa Kyoto [2] (cell cycle stage: mitosis). Besides, the “solubility in G1/S (log2)” value in the data set on HeLa Kyoto [3] is -0.116. Further, in the data set on HeLa Kyoto [4], the “solubility change mitosis (log2)” value came out at 0.02.
On to “MDPFTEKLLERTRARRENLQRKMAERPTAAPRSMTHAKRARQPLSEASNQQPLSGGEEKSCTKPSPSKKRCSDNTEVEVSNLENKQPVESTSAKSCSPSPVSPQVQPQAADTISDSVAVPASLLGMRRGLNSRLEATAASSVKTRMQKLAEQRRRWDNDDMTDDIPESSLFSPMPSEEKAASPPRPLLSNASATPVGRRGRLANLAATICSWEDDVNHSFAKQNSVQEQPGTACLSKFSSASGASARINSSSVKQEATFCSQRDGDASLNKALSSSADDASLVNASISSSVKATSPVKSTTSITDAKSCEGQNPELLPKTPISPLKTGVSKPIVKSTLSQTVPSKGELSREICLQSQSKDKSTTPGGTGIKPFLERFGERCQEHSKESPARSTPHRTPIITPNTKAIQERLFKQDTSSSTTHLAQQLKQERQKELACLRGRFDKGNIWSAEKGGNSKSKQLETKQETHCQSTPLKKHQGVSKTQSLPVTEKVTENQIPAKNSSTEPKGFTECEMTKSSPLKITLFLEEDKSLKVTSDPKVEQKIEVIREIEMSVDDDDINSSKVINDLFSDVLEEGELDMEKSQEEMDQALAESSEEQEDALNISSMSLLAPLAQTVGVVSPESLVSTPRLELKDTSRSDESPKPGKFQRTRVPRAESGDSLGSEDRDLLYSIDAYRSQRFKETERPSIKQVIVRKEDVTSKLDEKNNAFPCQVNIKQKMQELNNEINMQQTVIYQASQALNCCVDEEHGKGSLEEAEAERLLLIATGKRTLLIDELNKLKNEGPQRKNKASPQSEFMPSKGSVTLSEIRLPLKADFVCSTVQKPDAANYYYLIILKAGAENMVATPLASTSNSLNGDALTFTTTFTLQDVSNDFEINIEVYSLVQKKDPSGLDKKKKTSKSKAITPKRLLTSITTKSNIHSSVMASPGGLSAVRTSNFALVGSYTLSLSSVGNTKFVLDKVPFLSSLEGHIYLKIKCQVNSSVEERGFLTIFEDVSGFGAWHRRWCVLSGNCISYWTYPDDEKRKNPIGRINLANCTSRQIEPANREFCARRNTFELITVRPQREDDRETLVSQCRDTLCVTKNWLSADTKEERDLWMQKLNQVLVDIRLWQPDACYKPIGKP [ANLN]”, for which the melting temperature with HeLa Kyoto [1] (cell cycle stage: G1/S) stood at 47 °C; in the data set with HeLa Kyoto [1] (cell cycle stage: mitosis), 49.6 °C. Further, the thermal stability score in the data set with HeLa Kyoto [2] (setting [5]) turned out to be 5.84; in the data set on HeLa Kyoto [2] (cell cycle stage: mitosis) it was 9.22. In addition, the “solubility in G1/S (log2)” value in the data set on HeLa Kyoto [3] is -0.029. In the data set on HeLa Kyoto [4], the “solubility change mitosis (log2)” value is 0.0107.
“MRKRTEPVALEHERCAAAGSSSSGSAAAALDADCRLKQNLRLTGPAAAEPRCAADAGMKRALGRRKGVWLRLRKILFCVLGLYIAIPFLIKLCPGIQAKLIFLNFVRVPYFIDLKKPQDQGLNHTCNYYLQPEEDVTIGVWHTVPAVWWKNAQGKDQMWYEDALASSHPIILYLHGNAGTRGGDHRVELYKVLSSLGYHVVTFDYRGWGDSVGTPSERGMTYDALHVFDWIKARSGDNPVYIWGHSLGTGVATNLVRRLCERETPPDALILESPFTNIREEAKSHPFSVIYRYFPGFDWFFLDPITSSGIKFANDENVKHISCPLLILHAEDDPVVPFQLGRKLYSIAAPARSFRDFKVQFVPFHSDLGYRHKYIYKSPELPRILREFLGKSEPEHQH [ABHD12]”: the melting temperature in the data set with HeLa Kyoto [1] (cell cycle stage: G1/S) stood at 53 °C; in the data set with HeLa Kyoto [1] (cell cycle stage: mitosis), 54.9 °C. Also, the thermal stability score in the data set with HeLa Kyoto [2] (setting [5]) was 0.18; in the data set with HeLa Kyoto [2] (cell cycle stage: mitosis), -0.815. Further, the “solubility in G1/S (log2)” value in the data set with HeLa Kyoto [3] was 0.0996. Also, the “solubility change mitosis (log2)” value in the data set with HeLa Kyoto [4] stood at 0.0278.
With “MSSEDREAQEDELLALASIYDGDEFRKAESVQGGETRIYLDLPQNFKIFVSGNSNECLQNSGFEYTICFLPPLVLNFELPPDYPSSSPPSFTLSGKWLSPTQLSALCKHLDNLWEEHRGSVVLFAWMQFLKEETLAYLNIVSPFELKIGSQKKVQRRTAQASPNTELDFGGAAGSDVDQEEIVDERAVQDVESLSNLIQEILDFDQAQQIKCFNSKLFLCSICFCEKLGSECMYFLECRHVYCKACLKDYFEIQIRDGQVQCLNCPEPKCPSVATPGQVKELVEAELFARYDRLLLQSSLDLMADVVYCPRPCCQLPVMQEPGCTMGICSSCNFAFCTLCRLTYHGVSPCKVTAEKLMDLRNEYLQADEANKRLLDQRYGKRVIQKALEEMESKEWLEKNSKSCPCCGTPIEKLDGCNKMTCTGCMQYFCWICMGSLSRANPYKHFNDPGSPCFNRLFYAVDVDDDIWEDEVED [RNF14]”, the melting temperature with HeLa Kyoto [1] (cell cycle stage: G1/S) turned out to be 49.6 °C; with HeLa Kyoto [1] (cell cycle stage: mitosis), 49.1 °C. Also, the thermal stability score was found to be 0.508 in the data set with HeLa Kyoto [2] (setting [5]) and 1.14 in the data set on HeLa Kyoto [2] (cell cycle stage: mitosis). In the data set with HeLa Kyoto [3], the “solubility in G1/S (log2)” value worked out at 0.119. For the same sequence, the “solubility change mitosis (log2)” value in the data set with HeLa Kyoto [4] was -0.286.

For the origin of these results see the supplement of paper PMC5998384.
